This note sets out measurements from US20220089647A1 (FUJIFILM, published 2022).

Starred links: 1 amine or outer side, 2 acyl side, 3 side chain; linkers in the order of their positions; H or OH if unused. Positions of bridges follow the written chain, without caps; N, C: chain ends. Non-standard residues stand in square brackets, D forms with d. Primed or numbered codes have the meaning given here. No end group written: not given here. Dab(acetyl)″ = 2-amino-4-(acetylamino)butanoic acid, acetyl CH3 carbon bonded to the S of Hcy (S-CH2-C(=O)-NH-), O=C(C[*:3])NCC[C@H](N[*:1])C(=O)[*:2]; Dab(acetyl) = 2-amino-4-acetylamino-butanoic acid residue (N-γ-acetyl-diaminobutyric acid), CC(=O)NCC[C@H](N[*:1])C(=O)[*:2]; COCH2 = acetyl group that carries the bridge; hCys = N[C@@H](CCS)C(=O)O; Dab = NCC[C@H](N)C(=O)O; Dap = NC[C@H](N)C(=O)O; βAla = NCCC(=O)O

For test [1], the target named is T1, human integrin αvβ5 (human, UniProt P06756 31-992; P18084 24-719, limits assumed).
T1 construct: Heterodimer flowed as analyte at 30, 100, 300 and 1,000 nM in HEPES buffer with 5 mM MgCl2
T1 sequence (P06756 31-992 limits assumed, chain 1 of 2): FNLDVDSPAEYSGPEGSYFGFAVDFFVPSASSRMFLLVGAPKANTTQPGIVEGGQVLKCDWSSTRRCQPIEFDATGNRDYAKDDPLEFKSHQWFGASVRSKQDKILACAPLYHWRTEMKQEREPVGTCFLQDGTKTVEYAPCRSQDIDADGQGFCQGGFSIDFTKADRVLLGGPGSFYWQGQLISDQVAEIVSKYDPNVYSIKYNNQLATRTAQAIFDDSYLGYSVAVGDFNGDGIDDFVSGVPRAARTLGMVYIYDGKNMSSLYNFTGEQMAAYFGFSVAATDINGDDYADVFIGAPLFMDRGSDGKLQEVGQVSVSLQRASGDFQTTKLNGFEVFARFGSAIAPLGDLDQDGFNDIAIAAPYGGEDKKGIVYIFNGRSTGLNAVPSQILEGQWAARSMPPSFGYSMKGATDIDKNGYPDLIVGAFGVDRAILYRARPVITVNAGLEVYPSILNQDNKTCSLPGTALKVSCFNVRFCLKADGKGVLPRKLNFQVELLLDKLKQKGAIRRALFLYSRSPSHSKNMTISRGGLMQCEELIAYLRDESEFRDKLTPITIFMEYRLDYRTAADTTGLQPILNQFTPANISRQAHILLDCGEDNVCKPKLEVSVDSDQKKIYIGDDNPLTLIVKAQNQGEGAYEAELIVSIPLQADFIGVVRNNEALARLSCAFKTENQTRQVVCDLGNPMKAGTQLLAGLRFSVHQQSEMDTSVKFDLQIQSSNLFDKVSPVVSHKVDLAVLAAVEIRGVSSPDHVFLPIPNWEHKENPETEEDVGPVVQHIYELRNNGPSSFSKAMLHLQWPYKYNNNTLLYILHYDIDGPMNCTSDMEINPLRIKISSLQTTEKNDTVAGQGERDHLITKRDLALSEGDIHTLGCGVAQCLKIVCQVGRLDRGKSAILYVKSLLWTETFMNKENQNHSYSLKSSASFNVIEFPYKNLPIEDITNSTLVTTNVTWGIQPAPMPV
T1 sequence (P18084 24-719 limits assumed, chain 2 of 2): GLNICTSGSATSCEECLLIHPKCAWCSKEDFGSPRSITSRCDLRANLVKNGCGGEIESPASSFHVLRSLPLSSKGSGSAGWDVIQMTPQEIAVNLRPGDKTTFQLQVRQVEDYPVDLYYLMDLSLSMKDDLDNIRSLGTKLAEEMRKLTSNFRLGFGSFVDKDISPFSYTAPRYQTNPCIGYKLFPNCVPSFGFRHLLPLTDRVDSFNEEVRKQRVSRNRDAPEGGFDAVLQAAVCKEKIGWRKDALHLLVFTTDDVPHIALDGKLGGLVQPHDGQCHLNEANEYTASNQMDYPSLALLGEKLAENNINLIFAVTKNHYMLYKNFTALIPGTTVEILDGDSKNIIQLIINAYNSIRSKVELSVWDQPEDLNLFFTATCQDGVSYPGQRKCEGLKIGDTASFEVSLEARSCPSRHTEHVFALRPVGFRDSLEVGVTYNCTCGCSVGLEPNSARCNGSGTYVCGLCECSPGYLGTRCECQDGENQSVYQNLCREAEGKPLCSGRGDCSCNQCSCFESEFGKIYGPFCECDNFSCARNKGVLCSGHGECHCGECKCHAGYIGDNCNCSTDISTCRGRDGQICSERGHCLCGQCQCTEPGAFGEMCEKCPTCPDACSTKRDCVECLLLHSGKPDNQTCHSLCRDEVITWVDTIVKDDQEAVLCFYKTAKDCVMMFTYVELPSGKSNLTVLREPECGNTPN
Description: SPR, Biacore 3000, peptide immobilised; A = KD 50 nM or less.

The target of test [2] is T1, human integrin αvβ5. Description: SPR, Biacore 3000, peptide immobilised; C = KD more than 100 nM and 200 nM or less. Here is the method:
(§1) However, only for the cyclic peptides 125, 126, and 127, in which the number of lysine residues having an amino group as the immobilizing functional group was zero, the amount of the sample solution to be supplied to the sensor chip was set to 500 μL instead of 20 μL. Further, 70 μL of the mixed aqueous solution of 0.2 M EDC and 0.04 M NHS was added to another flow channel of the same sensor chip without immobilizing the sample, and then blocking treatment and washing treatment were carried out. Hereinafter, the obtained immobilization-treated sensor chip is referred to as an “immobilization-treated sensor chip A”.
(§2) After adding human integrin αvβ5 for 10 minutes at 25° C., which was diluted to 30 nM using a HEPES buffer solution to which magnesium chloride was added to 5 mM, in each flow channel of the immobilization-treated sensor chip A prepared in (1) above, the same HEPES buffer solution (containing 5 mM magnesium chloride) was allowed to flow as a running buffer for 30 minutes, and measurement was carried out with Biacore 3000. Then, a regeneration treatment of removing human integrin αvβ5 was carried out by allowing a 0.5 M EDTA aqueous solution to flow through each flow channel for 10 minutes. Further, the above-described measurement process consisting of adding integrin for 10 minutes, allowing a running buffer to flow for 30 minutes, carrying out measurement with Biacore 3000, and carrying out regeneration treatment with 0.5 M EDTA aqueous solution was carried out in the same manner for 100 nM human integrin αvβ5, 300 nM human integrin αvβ5, and 1,000 nM human integrin αvβ5. Dissociation constant between the cyclic peptide and human integrin αvβ5 was calculated from the difference between the value measured by Biacore 3000 in the flow channel immobilized with the cyclic peptide and the value measured by Biacore 3000 in the flow channel unimmobilized with the cyclic peptide, in a case where each concentration of human integrin αvβ5 was allowed to flow, and the integrin binding property was evaluated according to the following evaluation standards. It is preferable that the evaluation result satisfies the evaluation standard A, B, or C.
For orientation: SPR reads the build-up and loss of mass on a sensor chip optically.

Test [3] has as its target T1, human integrin αvβ5. Nature of the test: SPR, Biacore 3000, peptide immobilised; B = KD more than 50 nM and 100 nM or less.
The target in test [4] is T1, human integrin αvβ5. The test is described as above. Here is the method:
as §1, §2
This is another data set of the same source.

As to KKK[hCys]IPRGDSFA[Dab](COCH2)A (thioether 4-13) [Cyclic peptide 163], the “dissociation constant (KD)” value in test [1] was ≤ 50 nM.
KKK[hCys]PRGDNFR[Dab(acetyl)]A (thioether 4-12) [Cyclic peptide 9]: the “dissociation constant (KD)” value in test [2] was in the range of 100 to 200 nM.
In the case of KKKA[hCys]TPRGDTFA[Dab](COCH2)A (thioether 5-14) [Cyclic peptide 160], the “dissociation constant (KD)” value in test [1] is ≤ 50 nM.
On the same count and under the same terms, the same measure for KKKA[Dap](COCH2)EPRGDNYRC (thioether 5-14) [Cyclic peptide 166]: ≤ 50 nM; for KKK[Dab(acetyl)]VPRGDTFAC (thioether 4-13) [Cyclic peptide 141]: ≤ 50 nM; for KKKA[Dab(acetyl)]VPRGDTFACA (thioether 5-14) [Cyclic peptide 142]: ≤ 50 nM.
As for KKK[hCys]DPRGDTFA[Dab(acetyl)] (thioether 4-13) [Cyclic peptide 144], the “dissociation constant (KD)” value in test [1] was ≤ 50 nM.
Turning to KKK[hCys]VTRGDTFA[Dab(acetyl)] (thioether 4-13) [Cyclic peptide 150], in test [1], the “dissociation constant (KD)” value is ≤ 50 nM.
As to KKK[hCys]LPRGDTFA[Dab(acetyl)] (thioether 4-13) [Cyclic peptide 146], the “dissociation constant (KD)” value in test [1] was ≤ 50 nM.
In the case of KKK[hCys]VPRGDTFT[Dab(acetyl)] (thioether 4-13) [Cyclic peptide 154], in test [3], the “dissociation constant (KD)” value was 50 to 100 nM.
KKK[hCys]TTRGDSFA[Dab(acetyl)] (thioether 4-13) [Cyclic peptide 157]: the “dissociation constant (KD)” value in test [1] was ≤ 50 nM.
Consider KKK[hCys]EPRGDTFA[Dab(acetyl)] (thioether 4-13) [Cyclic peptide 145], for which the “dissociation constant (KD)” value in test [1] is ≤ 50 nM.
Same read-out and setting: the same measure for KKK[hCys]TTRGDTFA[Dab(acetyl)] (thioether 4-13) [Cyclic peptide 155]: ≤ 50 nM.
As for KKK[hCys]VSRGDTFA[Dab(acetyl)] (thioether 4-13) [Cyclic peptide 149], the “dissociation constant (KD)” value in test [1] is ≤ 50 nM.
On the same count and under the same terms, the same measure for KKK[hCys]VPRGDVFA[Dab(acetyl)] (thioether 4-13) [Cyclic peptide 151]: ≤ 50 nM.
Same read-out and setting: with KKK[hCys]VPRGDTFS[Dab(acetyl)] (thioether 4-13) [Cyclic peptide 153] the figure was ≤ 50 nM.
On to KKK[hCys]TPRGDSFA[Dab(acetyl)] (thioether 4-13) [Cyclic peptide 156], for which the “dissociation constant (KD)” value in test [3] lay within 50 to 100 nM.
For the molecule KKK[hCys]VPRGDTFG[Dab(acetyl)] (thioether 4-13) [Cyclic peptide 152], the “dissociation constant (KD)” value in test [1] is ≤ 50 nM.
Still for that read-out and setting: with KKK[hCys]YPRGDTFA[Dab(acetyl)] (thioether 4-13) [Cyclic peptide 148] the figure was ≤ 50 nM; with KKK[hCys]TPRGDTFA[Dab(acetyl)] (thioether 4-13) [Cyclic peptide 147], ≤ 50 nM.

B1: Cyclic peptide 8 (peptide)
peptide: KKKGXPRGDNFRXA
modifications: not fully specified; KKKG-(Hcy)-PRGDNFR(Dab(acetyl))A; thioether bond Hcy-Dab(acetyl)
Regarding B1, the “dissociation constant (KD)” value in test [4] was in the range of 50 to 100 nM.
For KKKA[hCys]EPRGDSYR[Dab](COCH2)D (thioether 5-14) [Cyclic peptide 33], the “dissociation constant (KD)” value in test [2] was 100 to 200 nM.
The same measure, in the same setting: with KKKA[hCys]EPRGDNYD[Dab](COCH2)D (thioether 5-14) [Cyclic peptide 35] the figure was 100 to 200 nM.
Regarding KKKA[hCys]TPRGDTFA[Dab(acetyl)] (thioether 5-14) [Cyclic peptide 158], the “dissociation constant (KD)” value in test [1] is ≤ 50 nM.
On the same count and under the same terms, the same measure for KKKA[hCys]VPRGDTFA[Dab](COCH2) (thioether 5-14) [Cyclic peptide 164]: ≤ 50 nM.
With KKKG[hCys]IPRGDNF[Dab(acetyl)″]A (thioether 5-13) [Cyclic peptide 6], the “dissociation constant (KD)” value in test [4] was in the range of 50 to 100 nM.
Take KKKA[hCys]TTRGDSFA[Dab](COCH2)A (thioether 5-14) [Cyclic peptide 161]: the “dissociation constant (KD)” value in test [3] was in the range of 50 to 100 nM.

B2: Cyclic peptide 73 (peptide)
peptide: KKKGXIPRGDXFRXA
modifications: not fully specified; KKKG-(Hcy)-IPRGD-(HmS)-FR(Dab(acetyl))A; HmS = homoserine; thioether bond Hcy-Dab(acetyl)
B2: the dissociation constant in test [4] lay within 50 to 100 nM.

B3: Cyclic peptide 50 (peptide)
peptide: KKKA[hCys]EPRGDNYR[Dab(acetyl)″]-NH2
modifications: thioether 5-14; N-terminus assumed
SMILES: C[C@H](NC(=O)[C@H](CCCCN)NC(=O)[C@H](CCCCN)NC(=O)[C@@H](N)CCCCN)C(=O)N[C@H]1CCSCC(=O)NCC[C@@H](C(N)=O)NC(=O)[C@H](CCCNC(=N)N)NC(=O)[C@H](Cc2ccc(O)cc2)NC(=O)[C@H](CC(N)=O)NC(=O)[C@H](CC(=O)O)NC(=O)CNC(=O)[C@H](CCCNC(=N)N)NC(=O)[C@@H]2CCCN2C(=O)[C@H](CCC(=O)O)NC1=O
On to B3, for which the “dissociation constant (KD)” value in test [2] was in the range of 100 to 200 nM.
For KKK[hCys]TPRGDTFA[Dab](COCH2)A (thioether 4-13) [Cyclic peptide 159], the “dissociation constant (KD)” value in test [1] is ≤ 50 nM.
Same read-out and setting: with KKK[hCys]VPRGDTFA[Dab](COCH2)A (thioether 4-13) [Cyclic peptide 165] the figure was ≤ 50 nM; with KKKA[hCys]IPRGDSFA[Dab](COCH2) (thioether 5-14) [Cyclic peptide 162], ≤ 50 nM.

B4: Cyclic peptide 51 (peptide)
peptide: KKK[βAla][hCys]EPRGDNYR[Dab(acetyl)″]-NH2
modifications: thioether 5-14; N-terminus assumed
SMILES: N=C(N)NCCC[C@@H]1NC(=O)[C@H](Cc2ccc(O)cc2)NC(=O)[C@H](CC(N)=O)NC(=O)[C@H](CC(=O)O)NC(=O)CNC(=O)[C@H](CCCNC(=N)N)NC(=O)[C@@H]2CCCN2C(=O)[C@H](CCC(=O)O)NC(=O)[C@@H](NC(=O)CCNC(=O)[C@H](CCCCN)NC(=O)[C@H](CCCCN)NC(=O)[C@@H](N)CCCCN)CCSCC(=O)NCC[C@@H](C(N)=O)NC1=O
On to B4, for which the “dissociation constant (KD)” value in test [2] lay within 100 to 200 nM.
With KKK[Dap](COCH2)EPRGDNYRC (thioether 4-13) [Cyclic peptide 167], the “dissociation constant (KD)” value in test [3] lay in the range of 50 to 100 nM.
Turning to KKK[Dab(acetyl)]VPRGDNFC (thioether 4-12) [Cyclic peptide 143], in test [1], the “dissociation constant (KD)” value is ≤ 50 nM.
